The text below walks through data of a protein production outcome set (Wang et al. 2014).

The series in a line: label from the status in PepcDB records.

On to “MNSMKLYIFACLCSLILWGVSCNEESAGIPTGSLFLGIEEDATLLTKAESAVTNESLRVDIIAAEGDTIKSYSDYIDEVKGKKIVLPVGTYTISVKSNQSEEAGWEKPFYSGSKEITIQSGEITSVQIVCKISNTKVAVEYADNLADYFSHYETTVSNTSGSLLYTRDETRAGFFKAEKLTADLKLVNQDGNEFAMQRVFPDIKERYFYKIKYSLDDGGGDNEEAGADFGGIIVDEKADTIYYGIFIKQEDLFGKSVPKLALDGFTENKIVYKKTENPSVPEHSLTIEAPNGIKQLKVETTSFQFADVPSFDLCNLTDAARTRLQQLDFPMQEVKDKQELTFVLTDFAKALEPASVTQMATHTFTFSVLDNLHQETTVQFIYEIRPNVNVTTEEPVVWAKFVTLRGNSIDRDNIGFMLKKKADADFQRYDATIYNEQTGDFSLLLIENIMPGTEYEYYAVSGTDAQGNVKTFTTSPIVNLKNNTFDEWFKNGKTWFPNVDVSKWWDSGNTGANTAGENNPTSPEESVVVKGKAAKLQSTWIGFIGIGAFASASMFTGNFVDIDGTNGILSFGQPFTAKPTKLTGYYKYTPVNIDYMEQWDSKVDPDLKSGDSDQCIIYIALCTKNYEIRTNPKSRQLFDPNDASVIAYGELVAKEAVSGEEANGYKKFSIDIKYRKTDVTPSYIVVVAAASRYGDYFTGGKGSTLYIDEFNLEYDYNAASFTNE”, for which the protein production entry is “failed”.

Regarding “MNSPANITDPLVLFMPSGKRGRFPVGTPVLDAARQLGVYVESVCGGRATCGRCQIEVQEGNFAKHKIVSSNDHISPKGPKEERYERVRGLPERRRLSCSAQILGDLVIDVPQDTVINALEHHHHHH”, the protein production entry is listed as “failed”.

Regarding “MNSSIVNAGIDPQVRESLKSFVGEAIDYANTSGKDAAIAKFNDQNGTFVRGNLYVYAFDYNGTTLALPYQPQLIGTDLSGLQDPYGVNYTKLEHHHHHH”, the protein production entry is “not failed”.

With “MNSVRKIKCLFLIFLDILFINLGYFISLCFEYGKEMKIEYFFNIRNLIILAIFTNILIFCFFNLYKNIWHMAGISECIRCLIASSISSILLILYKFIFNMDVTIVFLINSSILICMFSLLTRMSIRIFRKIYFPYKLESNLRKNVLIVGAGHCGRIVIDEMNKNNKFNPIGIVDDDLNKKGTFLNGVKVLGNRDDIEKICKRIKVDIILIAISNLSSNDKDEIIKRCENTKIKVKIIPSIYDLIDGNVKLTNIRDIDLRDLLGRDETRLDKEEVNNYIKEKIVIVTGGGGSIGSELCRQIAVFNPKKLIILDIYENYAYELENELKRNFKNLDLEVIIASIRDKSRLKKIFDKYKPDLIFHAAAHKHVPLMENNPEEAIKNNVLGTLNVAECADEFNLEKFVFISTDKAVNPTNIMGATKRIGEMIIQAMNEVSKTDFVAVRFGNVLGSNGSVIPLFIEQIKNGGPVTLTHKDITRYFMLIPEAAQLVLQAGAYAKGGEIFVLDMGKPVKIYDLTEKLIRLSGFEPNKDIQIKIVGLRPGEKLYEELILSEEELKKTKNEKIFILSPFKFDIKEIKKKIVELLNVALNEDKKAIKEKLKEIVKNYRDLEQIDFI”, the protein production result is given as “failed”.

For the sequence “MNTFAIPAPLIDAWRTTLETLRNLTGLGFGLLTRENGGELEIMVTAGELPSPFAEGYCLKGGPEGPLCAVVHTLARSLLIPDTTADARWASNPAVKAGVRAYFGLPLRLPTGALFGTLCLGSMSPVTGHDAVLKPLHCFATLVEQHIALLSTNALLRSQLDALPGASFASDPHGQMLFASNRCGSLLDLHPADIPGSDVDTVFNRIAALCESPEECHAILRRSFTLGGPSNGKLAFDDGRTIRWQARRLREDAGSVLGCTWFLEDATAELQARAGLTRSEALFRGLFNNAAVGIVLLDRQGFVVRSNVACARMLGTSPEQMHGLSFRAVLPPEDADQHLEEMQSLAEGETDELHGCWEMLHRNGSRLRVDLHGARLPGSGEEVVMLVGVDVTEQWRTERALAESERRYRALFDNAQAGIFRTSLADGTFLEANLRMAQMFGYDDVATFMAEYRAAENYVDPADRALMLDRLRTSGSFATMETHMRRRDGTTTWFLYSGTLDGDTIIGVANEISEMRATQEALRRSEERYRALFDNAADGLLLYEADGTLIDVNETIARRLGESREAIVGRNVASIVEPEVLERVRPRLAEILETGHASFESVHRTAMGPVNVEVHARRIEFEGRFVVLSSARDITERKNLEAALLREATTDPLTGGRNRRQFFVDANREFARALRHDSGLAVLMLDIDHFKNVNDLYGHQAGDEVLRAFAACCVEALRAYDVFGRLGGEEFAALLPAASPEEAMETAERLRKRVERRSVVYEGTALQCTVSVGVTSLAAADLGFDDMLRRADRALYAAKDHGRNRSEMAPMPMVPAEIPPPRKPFRE”, the protein production entry is “failed”.

For “MNTKIITILFIAFLSVLFFTGCIEEKISSQEHGSTKGISSSNDENTENRTVTDSLGRQVQVPLMVERVADTWMGHNEVLAMLGADDRLVATMFSPQSRPWMYKVCPTFNDAVTLSPTYDIEELLATKPDVVFMSKSDKNLEKISNLGIPAVQVSFTDFDSMKKCISDTANVLGDEEALERAQQYNTYLDSKLESVRNTSSQIPDENRPKVLHVVSLSPLCVDGGGNIISDWIEAAGGVNAAEEVKGGIMQEVSMEQILKWNPDVIILSVNAKSREKEQIMNSDQWKKVKAIQDNRVFLNPEGAFIWSRAGAEEALQIQWAAKTINPDKFQFIDINNETKWFYKTFFEYELTDEEVQKILNAEAPN”, the protein production entry is recorded as “failed”.

As to “MNTKKESALSFPSAGIESFGERLKELMGDESLRAFANAIDTSEGGVRKWFTQSTMPSFDKMVRIARRYNVNLEWLCTGEGPKFPGETAAYESVICKTEEFSEEYALIDGYHTQVSTGHGAQWDNERVRRKLAFRSKWLRYRGLQPENLRVVFAKGDSMEPTIHSGDSILVDITDANLSDGSIFVLRIGDDLFAKRVQVHIDGSITIISDNKEYREQRVPVAELGLLSVVGKVVWIGKDVK”, the protein production result is given as “failed”.

In the case of “MNTKLTKIISGLFVATAAFQTASAGNITDIKVSSLPNKQKIVKVSFDKEIVNPTGFVTSSPARIALDFEQTGISMDQQVLEYADPLLSKISAAQNSSRARLVLNLNKPGQYNTEVRGNKVWIFINESDDTVSAPARPAVKAAPAAPAKQQAAAPSTKSAVSVSKPFTPAKQQAAAPFTESVVSVSAPFSPAKQQAAASAKQQTAAPAKQQAATPAKQTNIDFRKDGKNAGIIELAALGFAGQPDISQQHDHIIVTLKNHTLPTTLQRSLDVADFKTPVQKVTLKRLNNDTQLIITTAGNWELVNKSAAPGYFTFQVLPKKQNLESGGVNNAPKTFTGRKISLDFQDVEIRTILQILAKESGMNIVASDSVNGKMTLSLKDVPWDQALDLVMQARNLDMRQQGNIVNIAPRDELLAKDKAFLQAEKDIADLGALYSQNFQLKYKNVEEFRSILRLDNADTTGNRNTLVSGRGSVLIDPATNTLIVTDTRSVIEKFRKLIDELDVPAQQVMIEARIVEAADGFSRDLGVKFGATGKKKLKNDTSAFGWGVNSGFGGDDKWGAETKINLPITAAANSISLVRAISSGALNLELSASESLSKTKTLANPRVLTQNRKEAKIESGYEIPFTVTSIANGGSSTNTELKKAVLGLTVTPNITPDGQIIMTVKINKDSPAQCASGNQTILCISTKNLNTQAMVENGGTLIVGGIYEEDNGNTLTKVPLLGDIPVIGNLFKTRGKKTDRRELLIFITPRIMGTAGNSLRY”, the protein production entry is reported as “failed”.

Regarding “MNTNVYENTDSETITPLNKRRILPVFLLVGLYAASTAAVMSVLPFYIREMGGSPLIIGIIIATEAFSQFCAAPLIGHLSDRVGRKRILIVTLAIAAISLLLLANAQCILFILLARTLFGISAGNLSAAAAYIADCTHVRNRRQAIGILTGCIGLGGIVGAGVSGWLSRISLGAPIYAAFILVLGAALVAIWGLKDPSTTSRTTDKIASFSARAILKMPVLRVLIIVMLCHFFAYGMYSSQLPVFLSDTFIWNGLPFGPKALSYLLMADGVINIFVQLFLLGWVSQYFSERKLIILIFALLCTGFLTAGIATTIPVLIFAIVCISIADALAKPTYLAALSVHVSPARQGIVIGTAQALIAIADFISPVLGGFVLGYALYGVWIGIAISVAIIGLVTAMIYLSKSSPLIAKPETE”, the protein production entry was “failed”.

As for “MNTPHGPLEYSLNSPFKAKGRFGRLSFAAWSFVSTLAIIGMLLVISVVFGALASDSNAIQIFGSLLLIAIYVTFLVFSVIFIIRRLHDRNHNGWFAILFFIPIINLIFIIYLLCAKGDIETNRFGAPRATPSWERVMGWIYIVLMPIVVILGVSSDAMMAYQRYTLHSKQVSDVSQMIQPVSTHNNRLS”, the protein production entry was “failed”.

As to “MNTQEPAGLFTAVYEGDENTVVRLLRAGTAADARDEDGQTALYLAAVSNEPGIVRLLLAAGADPDRLSADADSPLCGAACGGHAEVVRALLAAGATADLEEEFGFRALTWAVQRGQVEILTELLAAGAHPDRPGPTGEAPLVAAARRGSPGCVRALLAHGAGARSPALDEARRWPALDVEAELRAGLEQMYGSGHEMVTHRIPEDGGITVEVQLRTGERTMAGNDQQTGHAAIITLLEAALGIATPVPELADRALRCGDPANDDWTEAVSVLVRRAGGETFTAATAWSRSPDPLRRALGTEILRKLGR”, the protein production entry was “failed”.

For the sequence “MNTRAPAVEARQLIKTYPGDVTALSGMDITVEPGTVFGLLGPNGAGKSTTVKILTTLARPDSGTATVAGHDVLRHPDRVRRAIGVVAQSSGADPVATGRENLRLQGRLHGLKGAGLSRRVAELLDRFKLADAAGRQVKGYSGGMRRRLDVALGLVHRPEVLFLDEPTTGLDPEARTAMWDEIARLAGDEGLTILLTTHYLEEADRLAERIAIVDRGRVVVEGTPDGLKGELRGDAIHLELREAVGQAGRTLLKGSLGGVPGVHEVLFDDAQGRRVSVRADDGAAAMPALLGALERAGVGVAAATVARPSLDDVYLRHAGRRYSEAEAEGADSLALAGATGGTRLEHHHHHH”, the protein production entry is recorded as “failed”.

Turning to “MNTRLNEPDLPGDIDIKDLDPLVLQDLKVLSKDNADAVAKHMIMAATWLADDPQLALRHARAAKDRAGRVSVVRETNGIAAYHAGEWKEALSELRAARRMSGGPGLIAVMADCERGLGRPEKAIELAREEDLSSLDQDNLIELAIVVAGARHDLGQHDSAIVELQKVNPSLKSTGFTHSRLSYAYADALVLAGRGDEAREWFQHAATLDEDGYLDAEERIEQLDNGNN”, the protein production entry is reported as “failed”.

Take “MNTRNFSLPQLQNLPIEEARIVADALAVHATSRQIDSAASKLAALAEAGLKGDRQAYAAYQQLLYVLSLSDDVATAQTRRWLARAIYRVEERFMPAADLSRALSEEDFQKRLEQEIAAQSRERHPMSQYVFSGSASRAQLQVFLRHQWFRTFRLYRDAADLLVNLTDVDEAAALARYLYGELGEEDEKGSHPRLLAKLLEAIGLEADFQAVSTMPEEIAYLNNRARAFRHAEVGWGLAVFYITELVVPGNHEKLYRALLQAGLSEDQAEYYKVHISLVPPRAKREWQLIARRIPDVQFQNAFLTSLSQHFRVERAYYDAIWEEMQSVK”: the protein production entry is recorded as “not failed”.

Turning to “MNTYKKIFYFSTILFFYSGFSYAQNINLLLRKGNTCYRKGQYKNAAPYYDQVLKTDPENIQALYKSGVCNLFRYSKEQALINFEKVLQKDSSYDKYLYYWLGRANQLNFNFDQADFFYTAFQQKTSKNKIQYKEADRYKYQLKCARNFVANPANYKIQNLGAAVNSSFSDHSPVVSYTDTLLFFTSRRVTNTEAKEEHDGEPFEDIFYSYRNSTGEWSKPELFHLNTSGHDATIQLFDNDTKIFIYSYLHDGDILLAHKNAGTWSTPVPVKEINSADFESDAFMTADGKTLYYATNHFKKNGDLDICFITKKDDNTWSKPQTLSSLINTDEDEDAPYISADGKTMYFSSRGHTSMGGYDIFKSELDSVTGQWQKPVNLGYPVNTPDEDLYFCLSAKTKRAFMSSYRTGGFGEKDIYEIIPVKNIQLLGSVMKGDTSTPFPNVTMQYIPMAGAMKGAQKTQVNTLADGTYTTELLSDNAYLVYISQGKDTLLKDTLVLPLNEFDHYVYKQLYILNIHDTAAVKDSVIHKVTDTIKTIAAAEIAKTVYFESNRADLNAEAKTELNQLGIYLDTHKEANVYISGHADALGSAAINNALSQKRAQAAAVYLKAKGISAARIKVESFGSEKPVETNATVEGRAKNRRVQIVVK”, the protein production result was “failed”.
